Assay results published in PMC5984625, “Dynamic structural states of ClpB involved in its disaggregation function” (Nature Communications, 2018).
Several values for one entry are separate records, joined by “and”; a condition that tells them apart may be missing. Identical values can stand only once.

Legend:
[1] = molecular target: N-terminal deletion mutant of TClpB (ΔN-TClpB) (Thermus thermophilus); experiment: AUC; sedimentation velocity, 20 °C, 42,000 rpm, 50 mM MOPS pH 7.5, 50 mM KCl, 5 mM MgCl2, 0.5 and 2.0 mg/mL protein, with 20 mM ATP (preincubated 55 °C 1 min)
[2] = molecular target: N-terminal deletion mutant of TClpB (ΔN-TClpB) (Thermus thermophilus); experiment: native MS; incubated at 55 °C with 2 mM ATP or ATPγS for 1 min, exchanged into 150 mM ammonium acetate pH 7.5 with 100 µM ATP or ATPγS at 4 °C; nanoflow electrospray
[3] = molecular target: N-terminal deletion mutant of TClpB (ΔN-TClpB) (Thermus thermophilus); experiment: AUC; sedimentation velocity, 20 °C, 42,000 rpm, 50 mM MOPS pH 7.5, 50 mM KCl, 5 mM MgCl2, 0.5 and 2.0 mg/mL protein, with 20 mM ADP (preincubated 55 °C 1 min)
[4] = molecular target: N-terminal deletion mutant of TClpB (ΔN-TClpB) (Thermus thermophilus); experiment: AUC; sedimentation velocity, 20 °C, 42,000 rpm, 50 mM MOPS pH 7.5, 50 mM KCl, 5 mM MgCl2, 0.5 and 2.0 mg/mL protein, with 2 mM ATPγS (preincubated 55 °C 1 min)
[5] = molecular target: N-terminal deletion mutant of TClpB (ΔN-TClpB) (Thermus thermophilus); experiment: high-speed atomic force microscopy (HS-AFM); self-association; sample preincubated with 2 mM ATP at 55 °C for 1 min, adsorbed on bare mica, imaged at 25 °C in 50 mM MOPS pH 7.5, 20 mM KCl, 5 mM MgCl2 with ATP (10 μM to 2 mM for ΔN-TClpB, 0.5 mM for full length, 1 mM for the mutants; also 1 mM ATPγS or ADP)
[6] = molecular target: ΔN-TClpB hyperactive mutant Y494D (Thermus thermophilus); experiment: as above
[7] = test system: T1, Nc1ncnc2c1ncn2[C@@H]1O[C@H](COP(=O)(O)OP(=O)(O)OP(=O)(O)O)[C@@H](O)[C@H]1O; experiment: purified protein; format: biochemical, Thermus thermophilus; settings: Hill equation fit, Hill coefficient 2.6 ± 0.6, pH 7.5, 20 mM KCl, 5 mM MgCl2, 25 °C
T1 construct: N-terminal domain deletion (AAA1, M-domain and AAA2 kept); from plasmid pMCB1; expressed in E. coli BL21(DE3) or KRX; purified; hexamer and smaller oligomers

[8] = molecular target: ΔN-TClpB repressed mutant E423A (Thermus thermophilus); experiment: high-speed atomic force microscopy (HS-AFM); self-association; sample preincubated with 2 mM ATP at 55 °C for 1 min, adsorbed on bare mica, imaged at 25 °C in 50 mM MOPS pH 7.5, 20 mM KCl, 5 mM MgCl2 with ATP (10 μM to 2 mM for ΔN-TClpB, 0.5 mM for full length, 1 mM for the mutants; also 1 mM ATPγS or ADP)

ΔN-TClpB (Thermus thermophilus HB8), sequence (chain, as listed by the source mutant): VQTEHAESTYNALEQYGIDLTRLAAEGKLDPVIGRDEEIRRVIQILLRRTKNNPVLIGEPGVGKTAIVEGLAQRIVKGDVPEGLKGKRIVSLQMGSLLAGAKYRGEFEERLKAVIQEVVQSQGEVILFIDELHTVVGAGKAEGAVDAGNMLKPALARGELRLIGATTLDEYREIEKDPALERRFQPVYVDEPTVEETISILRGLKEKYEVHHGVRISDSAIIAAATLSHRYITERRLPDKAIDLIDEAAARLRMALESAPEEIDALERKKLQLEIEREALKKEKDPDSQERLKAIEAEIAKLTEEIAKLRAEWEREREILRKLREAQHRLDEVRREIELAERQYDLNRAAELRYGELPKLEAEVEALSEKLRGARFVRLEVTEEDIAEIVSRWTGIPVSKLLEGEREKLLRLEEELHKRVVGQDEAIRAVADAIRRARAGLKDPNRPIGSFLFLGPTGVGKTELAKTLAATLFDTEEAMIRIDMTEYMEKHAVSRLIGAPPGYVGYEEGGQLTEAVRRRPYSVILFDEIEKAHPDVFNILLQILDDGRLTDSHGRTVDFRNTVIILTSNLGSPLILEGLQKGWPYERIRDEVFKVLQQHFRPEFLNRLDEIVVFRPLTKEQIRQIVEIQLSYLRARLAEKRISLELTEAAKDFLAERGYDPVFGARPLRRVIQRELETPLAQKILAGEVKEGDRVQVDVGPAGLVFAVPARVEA

How did the stoichiometry N [1] turn out when “N-terminal deletion mutant of TClpB (ΔN-TClpB) (domain or fragment)” was run?
Its stoichiometry N is 6 and 3.

And the stoichiometry N [2]?
The stoichiometry N was 2 and 6.

What about the stoichiometry N [3] of the same substance?
The stoichiometry N was under 6.

And the stoichiometry N [4]?
Its stoichiometry N is 6.

And the stoichiometry N [5]?
The stoichiometry N was 6 and 3 to 8 (2×).

For “ΔN-TClpB hyperactive mutant Y494D (domain or fragment)”, which stoichiometry N [6] is on record?
Its stoichiometry N is 6.

With ΔN-TClpB (Thermus thermophilus HB8) as the substance, how does the K0.5 [7] read?
Its K0.5 is 0.16 ± 0.02 mM.

“ΔN-TClpB repressed mutant E423A (domain or fragment)” was tested. Which stoichiometry N [8] did it give?
The stoichiometry N was 6.
